Earlier results in PMC7529620.

Molecular target: NCAM/GFRα1 (Homo sapiens) (UniProt P13591)
Chain of UniProt P13591 (P13591 20-718, chain 1 of 2): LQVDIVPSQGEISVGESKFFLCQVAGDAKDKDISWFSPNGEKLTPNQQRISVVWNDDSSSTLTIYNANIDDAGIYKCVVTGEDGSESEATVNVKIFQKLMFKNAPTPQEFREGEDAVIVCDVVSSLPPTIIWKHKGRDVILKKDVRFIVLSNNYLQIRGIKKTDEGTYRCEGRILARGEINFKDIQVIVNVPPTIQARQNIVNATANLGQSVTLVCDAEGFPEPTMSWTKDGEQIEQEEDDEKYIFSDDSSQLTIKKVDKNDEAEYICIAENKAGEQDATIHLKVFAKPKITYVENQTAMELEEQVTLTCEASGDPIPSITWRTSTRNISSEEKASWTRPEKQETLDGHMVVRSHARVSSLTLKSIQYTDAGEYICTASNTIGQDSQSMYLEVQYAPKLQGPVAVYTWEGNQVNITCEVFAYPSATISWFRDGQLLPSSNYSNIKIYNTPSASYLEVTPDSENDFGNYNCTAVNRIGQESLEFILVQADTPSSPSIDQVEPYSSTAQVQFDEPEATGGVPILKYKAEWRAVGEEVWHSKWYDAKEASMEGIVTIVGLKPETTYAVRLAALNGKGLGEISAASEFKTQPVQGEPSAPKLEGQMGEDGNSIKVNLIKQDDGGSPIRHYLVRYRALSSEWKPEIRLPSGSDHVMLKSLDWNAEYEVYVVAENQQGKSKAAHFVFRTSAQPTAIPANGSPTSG
Chain of UniProt P13591 (P56159 25-429, chain 2 of 2, further chain): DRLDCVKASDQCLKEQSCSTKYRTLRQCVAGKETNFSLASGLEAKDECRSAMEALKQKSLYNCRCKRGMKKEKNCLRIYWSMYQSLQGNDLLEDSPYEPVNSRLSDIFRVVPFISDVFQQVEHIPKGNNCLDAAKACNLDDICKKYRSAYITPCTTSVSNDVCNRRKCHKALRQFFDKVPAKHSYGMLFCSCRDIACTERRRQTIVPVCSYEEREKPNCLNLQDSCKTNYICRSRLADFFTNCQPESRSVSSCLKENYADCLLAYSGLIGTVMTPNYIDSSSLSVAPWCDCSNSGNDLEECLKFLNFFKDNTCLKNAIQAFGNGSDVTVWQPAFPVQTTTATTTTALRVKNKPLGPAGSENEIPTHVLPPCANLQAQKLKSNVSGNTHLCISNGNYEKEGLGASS

Substance: GDNF (from UniProt P39905)
- Kd: 1 nM
